# Test results from patent publication US20220401560A1, “PEPTIDE ENCAPSULATING FERRITIN” (Ajinomoto Co., Inc., priority 2019, published 2022).
# No end group written: not given here.
# Target: T1, ferritin (FTH) (Homo sapiens, UniProt P02794)
# T1 construct: made in house; host or cells: Escherichia coli BL21 (DE3), plasmid pET20-FTH
# Experiment: Search for peptides capable of being encapsulated into ferritin by disassembly/reassembly process, LC-MS detection
# Conditions: encapsulation into ferritin (FTH); three trials
# Description: Peptides capable of being encapsulated into ferritin by disassembly/reassembly process were searched. In the disassembly/reassembly process, 1 mL of a 50 mM glycine hydrochloride buffer (pH 2.3) containing FTH at a final concentration of 5 mg/mL and the peptide at a final concentration of 0.5 mM, was left to stand at room temperature for 15 minutes. Next, 310 μL of a 1 M Tris hydrochloride buffer (pH 9.0) was added for neutralization, and left to stand at room temperature for 3 hours. After the standing, 1.2 mL of a 50 mM Tris hydrochloride buffer (pH 8.0) was added, and centrifuged (at 15,000 rpm for one minute). Thereafter, 2.5 mL of its supernatant was injected into a desalting column PD-10 (Sephadex G-25 filled product, GE Healthcare Inc.) equilibrated with a 50 mM Tris hydrochloride buffer (pH 8) for the elusion with 3.0 mL of a 50 mM Tris hydrochloride buffer (pH 8.0) to separate non-encapsulated peptides and ferritin. A whole amount (3.0 mL) of the resulting solution was concentrated to 0.1 mL by centrifugal ultrafiltration using Vivaspin 20-100K (GE Healthcare Inc.). The operation of adding 10 mL of a 50 mM Tris hydrochloride buffer to the concentrated solution and then concentrating was repeated twice to remove peptides that were not removed by PD-10 to obtain 0.1 mL of a sample solution. For the LC-MS analysis, 50 p1 of a 1 M glycine hydrochloride buffer (pH 2.3) was added to 50 μL of the sample solution and then the resulting solution was left to stand at room temperature for 15 minutes. To the solution, 900 μL of ethanol was added. Next, the resulting solution was stirred vigorously and then centrifuged (at 15,000 rpm for five minutes) for collection of the supernatant. The supernatant was analyzed using LCMS-2020 (Shimadzu Corporation) as LC-MS, Inertsil (Registered trademark) as a column, ODS-3, particle diameter of 2 μm and 2.1 mm×50 mm (GL science). Thereafter, 10 μL of the sample injected into the column was eluded at a flow rate of 0.2 mL/min for 10 minutes such that a mixing ratio of a solution A (0.1% formic acid/99.9% acetonitrile) and a solution B (50% water/50% acetonitrile) is from 95:5 to 95:5.
# The encapsulation of the peptide into ferritin was studied by comparing in terms of the amount of the peptide detected by LC/MS between the sample prepared by encapsulating the peptide into ferritin at the disassembly/reassembly process and the sample prepared simply by mixing ferritin with the peptide. For example, ClAc-FHC was eluted at a retention time of 0.8 minute. […] However, the peak was not observed for the sample prepared by simply mixing the peptide with ferritin without performing the disassembly/reassembly process (FIG. 12B). FIG. 13 to FIG. 17 illustrate LC-MS results for FTH in which the peptide was encapsulated at the disassembly/reassembly process.
# T1 sequence (P02794 whole entry): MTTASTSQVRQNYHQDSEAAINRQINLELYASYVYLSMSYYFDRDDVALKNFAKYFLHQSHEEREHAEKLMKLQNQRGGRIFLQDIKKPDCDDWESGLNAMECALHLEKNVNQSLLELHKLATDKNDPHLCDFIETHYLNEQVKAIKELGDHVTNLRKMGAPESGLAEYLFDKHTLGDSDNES
substance,measurement,value
"5(6)-FAM-CGGPKKKRKVG (SEQ ID NO: 10) ({5(6)‑FAM}-CGGPKKKRKVG) [FAM-SV40, fluorescent dye-modified peptide, linear]",encapsulation,A (“A” represents peptides with three times of confirmation of encapsulation.)
